Data reported in patent publication US20100119506A1 (published 2010).
Substitutions are numbered along the chain they refer to.

T1: Human PAR-2 on cells (human, UniProt P55085 26-397)
T1 sequence: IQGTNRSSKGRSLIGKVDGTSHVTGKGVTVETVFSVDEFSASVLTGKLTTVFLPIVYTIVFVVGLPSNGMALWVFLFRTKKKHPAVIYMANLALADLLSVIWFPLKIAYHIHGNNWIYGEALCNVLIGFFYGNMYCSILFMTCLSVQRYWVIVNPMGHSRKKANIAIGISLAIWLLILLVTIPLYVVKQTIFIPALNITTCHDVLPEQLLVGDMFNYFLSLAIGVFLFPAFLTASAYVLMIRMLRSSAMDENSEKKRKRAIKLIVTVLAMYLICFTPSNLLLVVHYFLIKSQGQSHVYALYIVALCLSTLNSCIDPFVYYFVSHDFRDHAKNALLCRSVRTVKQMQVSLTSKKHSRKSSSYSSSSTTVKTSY

T2: FLAG-tagged PAR-2 over-expressed on HEK transfectants (Homo sapiens (Human), UniProt P55085 37-397)
T2 sequence: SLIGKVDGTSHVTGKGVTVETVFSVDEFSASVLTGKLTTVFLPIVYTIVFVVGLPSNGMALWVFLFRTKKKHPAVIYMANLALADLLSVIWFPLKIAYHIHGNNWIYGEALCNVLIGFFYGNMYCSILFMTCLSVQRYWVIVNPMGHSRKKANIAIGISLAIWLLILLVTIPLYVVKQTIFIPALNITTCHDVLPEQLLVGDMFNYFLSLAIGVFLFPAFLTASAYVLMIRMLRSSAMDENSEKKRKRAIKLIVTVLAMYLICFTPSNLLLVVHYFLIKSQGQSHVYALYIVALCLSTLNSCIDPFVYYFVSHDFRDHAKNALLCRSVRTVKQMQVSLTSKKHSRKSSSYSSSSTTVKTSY

B1: Ab5003 IgG4_Pro (antibody, V domains shown)
VH: QVQLVESGGGLVQPGGSLRLSCAASGFTFSSYAMNWVRQAPGKGLEWVSAISYKGHLTGYADSVKGRFTISRDNSKNTLYLQMNSLRAEDTAVYYCARIQNDPMDVWGQGTLVTVSS
VL: DIELTQPPSVSVAPGQTARISCSGDNLGKKYVQWYQQKPGQAPVLVIYDDSNRPSGIPERFSGSNSGNTATLTISGTQAEDEADYYCSSWDVGSDGWVFGGGTKLTVLG
notes: IgG4_Pro (human IgG4 constant regions, Ser241Pro hinge), lambda; also called IgG4p Ab5003
B2: Ab5150 IgG4_Pro (cross-cloned: light chain of Ab4999 with heavy chain of Ab5003) (antibody, V domains shown)
VH: B1 VH
VL: DIELTQPPSVSVAPGQTARISCSGDNLGKKYVQWYQQKPGQAPVLVIYDDSNRPSGIPERFSGSNSGNTATLTISGTQAEDEADYYCQTWDYSSIRDETNVFGGGTKLTVLG
notes: IgG4_Pro format
B3: Ab5007 IgG4_Pro (antibody, V domains shown)
VH: B1 VH with Y53F, K54S
VL: B1 VL
notes: IgG4_Pro (human IgG4 constant regions, Ser241Pro hinge), lambda; also called IgG4p Ab5007
B4: Ab5005 IgG4_Pro (antibody, V domains shown)
VH: B1 VH with A50T, K54S, G55S, H56S, L57A, G59S
VL: DIELTQPPSVSVAPGQTARISCSGDNLGKKYVQWYQQKPGQAPVLVIYDDSNRPSGIPERFSGSNSGNTATLTISGTQAEDEADYYCQSWALVGSSESNVFGGGTKLTVLG
notes: IgG4_Pro (human IgG4 constant regions, Ser241Pro hinge), lambda; also called IgG4p Ab5005
B5: Ab4997 IgG4_Pro (antibody, V domains shown)
VH: B1 VH with K54N, H56K, T58K
VL: B1 VL
notes: IgG4_Pro (human IgG4 constant regions, Ser241Pro hinge), lambda; also called IgG4p Ab4997
B6: Ab4994 IgG4_Pro (antibody, V domains shown)
VH: B1 VH with K54S
VL: B1 VL
notes: IgG4_Pro: variable regions fused to human IgG4 constant regions with Ser241Pro in the hinge, lambda light chain; also called IgG4p Ab4994
B7: Ab5149 IgG4_Pro (cross-cloned: light chain of Ab4999 with heavy chain of Ab4997) (antibody, V domains shown)
VH: B1 VH with K54N, H56K, T58K
VL: B2 VL
notes: IgG4_Pro format
B8: Ab4994 Fab (Fab, V domains shown)
VH: B1 VH with Q3E, K54S
VL: B1 VL
notes: Fab
B9: Ab4997 Fab (Fab, V domains shown)
VH: B1 VH with Q3E, K54N, H56K, T58K
VL: B1 VL
notes: Fab
B10: Ab5003 Fab (Fab, V domains shown)
VH: B1 VH with Q3E
VL: B1 VL
notes: Fab
B11: Ab5007 Fab (Fab, V domains shown)
VH: B1 VH with Q3E, Y53F, K54S
VL: B1 VL
notes: Fab
B12: Ab5006 Fab (Fab, V domains shown)
VH: B1 VH with Q3E, S49G, Y53F, K54D, H56M
VL: B1 VL
notes: Fab

Each binder was assayed against T1, Human PAR-2 on cells (assay: cell-based or functional assay).

For B1, which “FLIPR A549 cells IC50” value is on record?
The value was 2.3 nM.

B2 was tested. Which “FLIPR A549 cells IC50” value did it give?
The value was 2.3 nM.

With B3 as the binder, how does the “FLIPR A549 cells IC50” value read?
Its value is 3.7 nM.

For B4, which “FLIPR A549 cells IC50” value is on record?
Its value is 2.5 nM.

For B5, which “FLIPR A549 cells IC50” value is on record?
Its value is 2.4 nM.

B6 was tested. Which “FLIPR A549 cells IC50” value did it give?
Its value is 2.2 nM.

How did the “FLIPR A549 cells IC50” value turn out when B7 was run?
Its value is 3.3 nM.

The binders below were run against T2, FLAG-tagged PAR-2 over-expressed on HEK … (assay: cell-based or functional assay).

For B1, which “FLAG Cell-Based Cleavage Approx. IC50” value is on record?
The value was < 1 nM.

B2 was tested. Which “FLAG Cell-Based Cleavage Approx. IC50” value did it give?
The value was < 1 nM.

For B3, which “FLAG Cell-Based Cleavage Approx. IC50” value is on record?
Its value is < 1 nM.

How did the “FLAG Cell-Based Cleavage Approx. IC50” value turn out when B4 was run?
The value was < 1 nM.

B5 was tested. Which “FLAG Cell-Based Cleavage Approx. IC50” value did it give?
The value was < 1 nM.

How did the “FLAG Cell-Based Cleavage Approx. IC50” value turn out when B6 was run?
The value was < 1 nM.

Which “FLAG Cell-Based Cleavage Approx. IC50” value does the source give for B7 here?
Its value is < 1 nM.

Each binder was assayed against labeled peptide representing the N-terminus of PAR-2 (FRET assay) (assay: cell-based or functional assay).

For B1, which “FRET Peptide Cleavage IC50” value is on record?
The value was < 30 nM.

Which “FRET Peptide Cleavage IC50” value does the source give for B2 here?
Its value is < 30 nM.

How did the “FRET Peptide Cleavage IC50” value turn out when B3 was run?
The value was < 30 nM.

For B4, which “FRET Peptide Cleavage IC50” value is on record?
Its value is < 30 nM.

B5 was tested. Which “FRET Peptide Cleavage IC50” value did it give?
Its value is < 30 nM.

B6 was tested. Which “FRET Peptide Cleavage IC50” value did it give?
Its value is < 30 nM.

B7 was tested. Which “FRET Peptide Cleavage IC50” value did it give?
Its value is < 30 nM.

What follows are binders tested against T1, Human PAR-2 on cells (assay: cell binding of IgG4_Pro, HEK-PAR-2 (#3)).

For B1, which EC50 is on record?
Its EC50 is 0.5 nM.

How did the EC50 turn out when B2 was run?
The EC50 was 0.3 nM.

Which EC50 does the source give for B3 here?
The EC50 was 0.5 nM.

B4 was tested. Which EC50 did it give?
The EC50 was 0.1 nM.

For B5, which EC50 is on record?
Its EC50 is 0.4 nM.

With B6 as the binder, how does the EC50 read?
Its EC50 is 0.4 nM.

With B7 as the binder, how does the EC50 read?
The EC50 was 0.7 nM.

The binders below were run against T1, Human PAR-2 on cells (assay: cell binding, Fab against IgG4p of the same clone).

With B8 as the binder, how does the “Ratio of EC50 Fab / EC50 IgG” value read?
The value was 4.8.

For B9, which “Ratio of EC50 Fab / EC50 IgG” value is on record?
The value was 8.

Which “Ratio of EC50 Fab / EC50 IgG” value does the source give for B10 here?
Its value is 15.3.

With B11 as the binder, how does the “Ratio of EC50 Fab / EC50 IgG” value read?
The value was 19.3.

Each binder was assayed against T1, Human PAR-2 on cells (assay: binding of Fab to PAR-2 transfected HEK cells (HEK-PAR-2 #3)).

B8 was tested. Which EC50 did it give?
The EC50 was 1.9 nM.

How did the EC50 turn out when B9 was run?
Its EC50 is 3.03 nM.

Which EC50 does the source give for B12 here?
Its EC50 is 11.9 nM.

For B10, which EC50 is on record?
The EC50 was 7.03 nM.

For B11, which EC50 is on record?
The EC50 was 9.66 nM.

Each binder was assayed against T1, Human PAR-2 on cells (assay: binding of IgG4p to PAR-2 transfected HEK cells (HEK-PAR-2 #3)).

Which EC50 does the source give for B1 here?
The EC50 was 0.46 nM.

With B3 as the binder, how does the EC50 read?
The EC50 was 0.5 nM.

B4 was tested. Which EC50 did it give?
Its EC50 is 0.06 nM.

Which EC50 does the source give for B5 here?
The EC50 was 0.38 nM.

For B6, which EC50 is on record?
Its EC50 is 0.4 nM.
